One data set addresses Hexim1-deltaPYNT (human, UniProt O94992 1-201+206-359, internal_change). In words: ITC; ITC: 20 mM HEPES pH 7.5, 150 mM KCl, 1 mM TCEP, 295 K; NMR: 50 mM Na phosphate pH 6.2, 150 mM KCl, 0.02% NaN3, 5% D2O, 298 K; EMSA: binding buffer (20 mM HEPES). The following applies: protein: recombinant; chain copies: 2; hairpin.
A further data set concerns the target Hexim1 NBLA-S158EE (human, UniProt O94992 1-157+=EE+159-253, internal_change). In words: ITC; N=0.74; ITC: 20 mM HEPES pH 7.5, 150 mM KCl, 1 mM TCEP, 295 K; NMR: 50 mM Na phosphate pH 6.2, 150 mM KCl, 0.02% NaN3, 5% D2O, 298 K; EMSA: binding buffer (20 mM HEPES). Particulars: protein: recombinant; hairpin with U40U41 and U63 bulges.
Data set [1] has as its target Hexim1 BR-L-AR(S183C-MTSL) (human, UniProt O94992 142-253, S183C). The data set can be described thus: NMR (PRE); 1:1.2 protein:RNA; intensity recovery outside BR; ITC: 20 mM HEPES pH 7.5, 150 mM KCl, 1 mM TCEP, 295 K; NMR: 50 mM Na phosphate pH 6.2, 150 mM KCl, 0.02% NaN3, 5% D2O, 298 K; EMSA: binding buffer (20 mM HEPES). Particulars: protein: recombinant; tags: MBP-His6 removed by TEV; non-native N-terminal G; MTSL spin label at C183; hairpin with U40U41 and U63 bulges.

Results on 2 molecules are retold here after article PMC12901311, “HEXIM1 inter-monomer autoinhibition governs 7SK RNA binding specificity and P-TEFb inactivation” (Nature Communications, 2024).

Hexim1 NBLA-S158EE, sequence (O94992 other isoform, or with tags, fused parts or gaps): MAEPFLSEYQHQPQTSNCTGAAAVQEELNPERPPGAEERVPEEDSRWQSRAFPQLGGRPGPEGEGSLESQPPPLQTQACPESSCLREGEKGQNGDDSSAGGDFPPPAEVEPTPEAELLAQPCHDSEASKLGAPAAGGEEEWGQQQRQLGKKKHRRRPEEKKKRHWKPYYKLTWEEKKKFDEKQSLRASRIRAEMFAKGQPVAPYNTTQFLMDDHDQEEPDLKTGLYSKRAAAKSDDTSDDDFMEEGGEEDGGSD
Hexim1 BR-L-AR(S183C-MTSL), sequence (O94992 142-253 S183C): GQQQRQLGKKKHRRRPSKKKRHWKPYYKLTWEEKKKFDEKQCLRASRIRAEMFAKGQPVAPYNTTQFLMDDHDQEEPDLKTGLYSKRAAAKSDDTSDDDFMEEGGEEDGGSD
Hexim1-deltaPYNT, sequence (O94992 other isoform, or with tags, fused parts or gaps | mutant): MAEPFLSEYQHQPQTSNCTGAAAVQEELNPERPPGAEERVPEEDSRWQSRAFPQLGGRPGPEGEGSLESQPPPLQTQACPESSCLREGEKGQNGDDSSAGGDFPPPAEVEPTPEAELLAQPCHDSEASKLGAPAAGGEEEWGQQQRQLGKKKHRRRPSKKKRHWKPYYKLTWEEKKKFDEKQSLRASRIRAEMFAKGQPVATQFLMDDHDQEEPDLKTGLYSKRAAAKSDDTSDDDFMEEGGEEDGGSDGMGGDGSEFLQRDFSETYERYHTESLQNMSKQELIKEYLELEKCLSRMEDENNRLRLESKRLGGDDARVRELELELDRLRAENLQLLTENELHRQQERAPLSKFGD

As for GGAUGUGAGGGCGAUCUGGCUUCGGCCUUCCUCCCUCACCGCUCCA (structured_RNA) [7SK SL1-p], in the data set with Hexim1-deltaPYNT, the binding signal was ~5 fold tighter than wild-type Hexim1.

Consider GGCCAUUGAUCGCCUUCGGGCUGAUCUGGCC (structured_RNA) [7SK SL1-dI], for which the dissociation constant (Kd) with Hexim1 NBLA-S158EE was found to be 727 ± 63 nM. The binding result in data set [1] is given as “binds”.
